In the nanobody polyreactivity screen of Harvey et al. (2022):

Assay: yeast display, Sf9 membrane polyspecificity reagent, FACS + sequencing; frameworks hold sequencing errors
How it was run: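 Nanobodies came from a synthetic yeast display library in Saccharomyces cerevisiae BJ5465, induced with galactose for 36–48 hours and stained for 1 hour at 4 °C with 10% biotinylated, detergent-solubilized Sf9 membrane reagent. Cells were enriched on streptavidin microbeads and then FACS-sorted, with low and high (top ~1%) gates set on anti-HA fluorescence for expression and streptavidin fluorescence for reagent binding. Each polyreactivity label reflects the gate a clone came from. Genes were amplified by colony PCR, sequenced by MiSeq 2 × 250 and filtered by CDR length.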

Row | Sequence | polyreactivity (PSR sort gate)
1 | QVQLVESGGGLVQAGGSLRLSCAASGINFRYYAMGWYRQATGKERELVADISSDGGTYYADSVKGRFKISRDNAQNTVYLQMNSLKPEDTAVYYCAADYQFYWHYYYWGQGTQVTVSS | high polyreactivity
2 | QVQLVESGGGLVQAGGSLRLSCAASGINFVRNAMGWYRQAPGKERELVAAITGRGVSTYYADSVKGRFTISRDNAKNTVYLQMKSLKPEDTAVYYCAARYSSRGTYPRRYDYWGQGTQVTVSS | high polyreactivity
3 | QVQLVESGGGLVQAGGSLRLSCAASGIPRNTMGWYRQAPGKERELVASISTSGGSTYYADSVKGRFTLSRDNANNTVYLQMNSLKPEDTAVYYCAKKGYASRYFIYDYWGQGTQVTVSS | low polyreactivity
4 | QVQLVESGGGLVQAGGSLRLSCAASGISFYEYGMGWYRQAPGKERELVAAITFGGGSTYYADSVKGRFTISRDNAKNTVYLQMNSLKPEDTAVYDCAADRVYWGRVQGYYWGQGTQVTVSS | low polyreactivity
5 | QVQLVESGGGLVQAGGSLRLSCAASGITFAGYTMGWYRQAPGKERELVAAISWRTGSTYYADSVKGRFTISRDTAKNTVYLQMNSLKPEDTAVYYCAARVPSPYVATYYYWGQGTQVTVSS | high polyreactivity
6 | QVQLVESGGGLVQAGGSLRLSCAASGITFAPYAMGRYRQAPGKERELVAAIRGSTTSTYYADSVKGRFTISRDNAKNTVYLQINSLKPEDTAVYYCAAAGWKGLGRFYSWGQGTQVTLSS | high polyreactivity
7 | QVQLVESGGGLVQAGGSLRLSCAASGITFAQYAMGWYRQAPGKEREVVAGITRSGGSTHYADSVKGRFTISRDNAKNTVYLQMNSLKPEDTAVYYCNARYPYRGKRKPSDYWGQGTQVTVSS | high polyreactivity
8 | QVQLVESGGGLVQAGGSLRLSCAASGITFARYAMGWYRQAPGKERELVAAISQSGGSTYYADSVKGRFTISRDNAKNTVYLQMNSLKPEDTAVYYCNAYYVNYVSNYEYWGQGTQVTVSS | high polyreactivity
9 | QVQLVESGGGLVQAGGSLRLSCAASGITFARYAMGWYRQAPGKERELVAAITRSGGSTNYADSVKGRFTISRDNAKNTVYLQMNSLKPEDTAVYYCAAAGYRFRFVYSRYEYWGQGTQVTVSS | high polyreactivity
10 | QVQLVESGGGLVQAGGSLRLSCAASGITFARYTMGWYRQAPGKERELVAAITWSGGRTYYADSVKGRFTISRDNAKNTVYLQMNSLKPEDTAVYYCNVDLGRYGTSSGASVGYGDYDYWGQGTQVTVSS | high polyreactivity
11 | QVQLVESGGGLVQAGGSLRLSCAASGITFAYNAMGWYRQAPGKERELVATISIGGNTNYADSVKGRFTISRDNAKNTVYLQMNSLKPEDTAVYYCNADFPHEGGFCYWGQGTQVTVSS | low polyreactivity
12 | QVQLVESGGGLVQAGGSLRLSCAASGITFAYNAMGWYRQEPGKERELVARITSGGRTYYADSVKGRFTISRDNAKNTVYLQMNSLKPEDTAVYYCATPYTSYLYGYDYWGQGTQVTVSS | low polyreactivity
13 | QVQLVESGGGLVQAGGSLRLSCAASGITFAYYAMGWYRQAPGKERELVAAIRGGTNTYYADSVKGRFTISRDNAKYTVYLQMNSLKPEDTGVYYCAVRLYLEMDYWGQGTQVTVSS | high polyreactivity
14 | QVQLVESGGGLVQAGGSLRLSCAASGITFAYYAMGWYRQAPGKERELVAAISSTGSSTYYADSVKGRFTISRDNAKNTVYLQMNSLKPEDTAVYYCNKLQQYTLSEYWGQGTQVTVSS | high polyreactivity
15 | QVQLVESGGGLVQAGGSLRLSCAASGITFAYYAMGWYRQAPGTEREWVAAISRSGGGTYYADSVKGRFTISRDNAKNTVYLQMNTLIPEDTAVYYCNKDYPYYNSGPWAYKFDYCGQGTQVTVSS | high polyreactivity
16 | QVQLVESGGGLVQAGGSLRLSCAASGITFAYYTMGWYRQAPGKERELVAGISSSGGRTYYADSVKGRFTISRDNAKNTVYLQMNSLKPEDTAVYYCAARFGYRGSTYTLTYGYWGQGTQVTVSS | high polyreactivity
17 | QVQLVESGGGLVQAGGSLRLSCAASGITFDAHAMGWYRQAPGKERELVARISSGGSTNYADSVKGRFTISRDNAKNTVYLQMNSLKPEDTAVYYCANSYLYGFDYWGQGTQVTVSS | low polyreactivity
18 | QVQLVESGGGLVQAGGSLRLSCAASGITFDDYAMGWYRQAPGKERELVAAISVSGGDTYYADSVKGRFTISRDNAKNTVYLQMNSLKPEDSAVYYCAAEEVSPRWYDYWGLGTQVTVSS | low polyreactivity
19 | QVQLVESGGGLVQAGGSLRLSCAASGITFDENTMGWYRQAPGKERELVAAITEIGGSTYYADSVKGRFTISRDNAKNTVYLQMNSLKPEDTAVYYCNAARWVVRFVDYEYWGQGTQVTVSS | low polyreactivity
20 | QVQLVESGGGLVQAGGSLRLSCAASGITFDGYAMGWYRQAPGKETELVAANSWSGGRTYYADSVKGRFTISRDNAKNTVYLQMNSLKPEDTAVYYCGVYRRGVVYLLTSGVDYWGQGTQVTVSS | high polyreactivity
21 | QVQLVESGGGLVQAGGSLRLSCAASGITFDGYDMGWYRQAPGKEREMVATIDSGGITYYADSVKGRFTISRDNAKNTVYLQMNSLKPEDTAVYYCNADEWYYNFDIVEFDYWGQGTQVTVSS | low polyreactivity
22 | QVQLVESGGGLVQAGGSLRLSCAASGITFDHYAMGWYRQAPGKERELVAAITSGGNTNYADSVKGRFTISRDNAKNTVYLQMNSLKPEDTAVYYCNARYDVWYYYWGQGTQVTVSS | high polyreactivity

Row | Sequence | polyreactivity (PSR sort gate)
23 | QVQLVESGGGLVQAGGSLRLSCAASGITFDIYAMGWYRQAPGKVRELVAAISGSDGSTYYADSVKGRFTISRDNAKNTVYLQMNSLKPEDTAVYYGAAESEYAGTYESDYWGLGTQVTVSS | low polyreactivity
24 | QVQLVESGGGLVQAGGSLRLSCAASGITFDTYAMGWYRQAPGKERELVAAISKSGGSPYYADSVKARFTISRDNAKNTVYLQMNSLKPEDTAVNYCNARYRHSGRYWDWYYYWGQGTQVTVSS | high polyreactivity
25 | QVQLVESGGGLVQAGGSLRLSCAASGITFDVNAMGWYRQAPGKERELVAAITAGGNTYYADSVKGRFTISRDNAKNTVYLQMNSLKPEDTAVYYCAAVSTSLYWAGYDYWGQGTQVTVSS | low polyreactivity
26 | QVQLVESGGGLVQAGGSLRLSCAASGITFDYYAMGWYRQAPGKERELVAAIRSGGSTNYADSVKGRFTISRDNAKNTVYLQMNSLKPVDTAVYYCAAVRYYPWYDYWGQGTQVTVSS | high polyreactivity
27 | QVQLVESGGGLVQAGGSLRLSCAASGITFDYYAMGWYRQAPGKERELVAAISGGDSTNYADSVKGRFTISRDNEKNTVYLQMNSLKPEDTAVYYCNVQYSGLYWSYRIDFDYWGQGTQVTVSS | high polyreactivity
28 | QVQLVESGGGLVQAGGSLRLSCAASGITFDYYGMGWYRQAPGKEGELVASITSGGSTNYADSVNGRFTISRDNAKNTVYLQMNSLKPEDTAVYYCNAEFWEVSPDRRDYDYWGQGTQVTVSS | low polyreactivity
29 | QVQLVESGGGLVQAGGSLRLSCAASGITFEDYAMGWYRQAPGKERELVAAITSNGGSTYYADSVKGRFTISRDNAKNTVYLQMNSLKPEDTAVYYCAATKYFSYYGRVSWADGGYWGQGTQVTVSS | low polyreactivity
30 | QVQLVESGGGLVQAGGSLRLSCAASGITFEGYSMGWYRQAPGKERELVAAIRSSGTSTYYADSVKGRFTISRDNAKNTVYLQMNSLKPEDTAVYYCNRARSSSRYDYWGQGTQVTVSS | low polyreactivity
31 | QVQLVESGGGLVQAGGSLRLSCAASGITFEPYAMGWDREAPGKEREFVSDNTWSGGSTYYADSVKSRFTISRDNANNTVYLQMNSLKPEDTAVYYCAADGWTSYWSDYWGQGTQVTVSS | low polyreactivity
32 | QVQLVESGGGLVQAGGSLRLSCAASGITFERNAMGWYRQAPGKERELVAAITGRGTSTYADSVKGRFTISRDNAKNTVYLQMNSLKPEDTAVYYCAAVGWFADFLFSDINGYYWGQGTQVTVSS | low polyreactivity
33 | QVQLVESGGGLVQAGGSLRLSCAASGITFERYVMGWYIQAPGKERELVASISRSGSTFYADSVKGRFTISRDNAKNTVYLQMNSLKPEDTAVYYCNADRFWFHWVYSRYHYDYWGQGTQVTVSS | high polyreactivity
34 | QVQLVESGGGLVQAGGSLRLSCAASGITFEVNAMGWYRQAPGKERELVARISRDGSTNYADSVKGRFTISRDNAKNTVYLQRNSLKPEDTAVYYCNAKLYRSFDYWGQGTQVTVSS | low polyreactivity
35 | QVQLVESGGGLVQAGGSLRLSCAASGITFEYYAMGWYRQAPGKERELVAAIDTGGSTNYADSVKGRFTISRDNAKNTVYLQMNSLKPEDTAVYYCTADGPSTPWVDYGYWGQGTQVTVSS | low polyreactivity
36 | QVQLVESGGGLVQAGGSLRLSCAASGITFEYYAMGWYRQAPGKERELVAAISWSGSSTYYADSVKGRFTISRDNAKNTVYLQMNSLKPEDTAVYYCNADSSWWASDDQYDYWGQGTQVTVSS | low polyreactivity
37 | QVQLVESGGGLVQAGGSLRLSCAASGITFFDYAMGWSRQAPGKERELVAAIDLSDGRTYYADSVKGRFTISRDNAKNTFYLQMNSLKPEDTAVYYCAAVSTSLYWAGYDYWGQGTQVTVSS | low polyreactivity
38 | QVQLVESGGGLVQAGGSLRLSCAASGITFFENAMGWYRQAPGKERELVAAISYSGGNTYADSVKGRFTISRDNAKNTVYLQMNSLKPEDTAVYYCNADYAGWGEYDYWGQGTQVTVSS | low polyreactivity
39 | QVQLVESGGGLVQAGGSLRLSCAASGITFFEYAMGWYRQAPGKERELVAVITSGGSTNYADSVKGRFTISRDNAKNTVYLQMNSLKPEDTAVYYCNARVVKYRWWYDYYYWGQGTQVTVSS | low polyreactivity
40 | QVQLVESGGGLVQAGGSLRLSCAASGITFFIYAMGWYRQAPGKQRELFAAIRSGGSTNYADSVKGRFTISRDNAQNTVYLQMNSLKPEDTSVFYCAADVYGTVRRVGWYYVGEGYDYWGQGTQVTVSS | low polyreactivity
41 | QVQLVESGGGLVQAGGSLRLSCAASGITFFVYAMGWYRQAPGKERELVAAITSGDSTSYADSVKGRFTISRDNAKNTVYLQMNSLKPEDTAVYYCAAEQVTIEDGVYFDFNSWGQGTQVTVSS | low polyreactivity
42 | QVQLVESGGGLVQAGGSLRLSCAASGITFFVYDMGWYRQAPGKERELVAAITWSGDSTYYADSVKGRFTISRDNAKNTVYLQMNSLKPEDTAVYYCAAQFDVYYSRQPYDYNRSGYWGQGTQVTVSS | low polyreactivity
43 | QVQLVESGGGLVQAGGSLRLSCAASGITFGAYTMGWYRQAPGKERELVAAISRTGARTYYADSVKGRFTISRDNAKNTVYLQMNSLKPEDTAVYYCAAYRIGQYDYWGQGTQVTVSS | high polyreactivity
